This is an account of results in publication PMC4445282, “Alpha-L-Fucosidase Isoenzyme iso2 from Paenibacillus thiaminolyticus” (BMC Biotechnology, 2015).

Substrate in this data set: C[C@@H]1O[C@@H](Oc2ccc([N+](=O)[O-])cc2)[C@@H](O)[C@H](O)[C@@H]1O
Nature of the data set: purified protein. Type of data set: biochemical, Paenibacillus thiaminolyticus. The following applies: 50 mM phosphate pH 7.0, 37 °C (standard assay), substrate 0.01-35 mmol/L.

B1: α-L-fucosidase iso2 (Paenibacillus thiaminolyticus) (protein)
chain: MRYRQVHLDFHTSEHISDIGRNFSKKNFQEMLQLGHVNSITVFAKCHHGWAYFPSATNEIHPRLDFDLLGAQIEAAHEIGVKVPIYISVGFDEKLAWEKPQWLMRDEADRMNWVDSFMKPGYHQFCLNTPYLDLVIEQVQEVVRKYDGDGIFLDIVGERTCYCTTCLKQMQADGLDPHNKEDVIANGRRIYANYTTRIREAIDAIKPGLPVFHNAGHIHQGRRDLMGMNSHLELESLPTGGWGYDHFPLSARYAQPTGFHFLGMTGKFHTFWGEFGGYKHPNALRYETALSLANGARCSIGDQLHPGGQMDRATYELIGKAYAEVEAKEAWCVNAVNLADVALLTVEAAGVQQESGAMYSGKVDMGAVRMLLEGKILFDIVDLESDWSGYKVLILPDSIVMKDTILPKVEAFLAAGGKVLASGRSGLNVELTRQMLPLGFTDSGLNPFRPDYFRPLCDGMANLGEAAYVMYGDGRRIELTDGTELGRREDPYFNRQAFRFCSHQHAPSSEQEGGPGMVESAQGIYIAWNVFEDYATKGSLILKEMVLFALRRLLGEQITLKTTLPAQGVTTLQHQAAERRYINHLLYASPVKRGERVEIIEDMIPLQQVEVQLQLPVTDVKRVYLAPQMTEIEFKASGGDVQFTVPQLECHQMVVVEYNE
notes: His-tagged fusion from pET16b-αLF2 (NdeI/XhoI), tag kept; E. coli BL21(DE3); Ni-NTA; primers encode start MRYRQVH and end VVEYNE
Regarding B1, the Km was determined as 520 ± 50 µM, the kcat turned out to be 111 ± 3 s⁻¹ and the kcat/Km is given as 213 ± 30 (mmol/L)^-1 s^-1.
